# From US20100130424A1 (Janssen / Centocor, published 2010)
# No end group written: not given here.
# T1: human CRH receptor type 2 (human, UniProt Q13324 1-411)
# T1 sequence (looked up): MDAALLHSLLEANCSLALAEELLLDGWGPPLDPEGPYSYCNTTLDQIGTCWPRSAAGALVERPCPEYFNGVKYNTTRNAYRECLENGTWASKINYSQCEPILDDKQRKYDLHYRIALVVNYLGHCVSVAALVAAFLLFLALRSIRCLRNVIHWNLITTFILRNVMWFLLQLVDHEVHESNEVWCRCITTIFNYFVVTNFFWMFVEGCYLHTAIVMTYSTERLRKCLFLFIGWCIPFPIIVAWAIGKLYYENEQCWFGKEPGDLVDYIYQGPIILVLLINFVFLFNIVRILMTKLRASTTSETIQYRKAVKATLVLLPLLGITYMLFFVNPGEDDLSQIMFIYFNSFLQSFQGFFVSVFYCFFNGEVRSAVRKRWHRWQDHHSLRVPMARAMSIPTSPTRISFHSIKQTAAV
# Target: T1, human CRH receptor type 2
# Assay: cell-based or functional assay
Binder,"Log DR against h-SCP, cAMP","pA50, cAMP"
"TKFTLSLDVPTCIMNLLFNIAKAKNLRAQAAANAHLMAQI-NH2 [Cys-variant CRHR2 peptide agonist, SEQ ID NO: 13]",-0.01 log10 ratio,9.59 -log M
"TKFTLSLDVPTCIMNLLFNIAKAKNLRAQAAANAHLMAQI (NES-PEG (about 20 kDa) on Cys 12; C-terminal amide) [Pegylated Cys-variant CRHR2 peptide agonist (NES linker, PEG about 20 kDa), SEQ ID NO: 66]",1.26 log10 ratio,8.31 -log M
"TKFTLSLDVPTNCMNLLFNIAKAKNLRAQAAANAHLMAQI-NH2 [Cys-variant CRHR2 peptide agonist, SEQ ID NO: 14]",> 2 log10 ratio,~7.34 -log M
"TKFTLSLDVPTNCMNLLFNIAKAKNLRAQAAANAHLMAQI (NES-PEG (about 20 kDa) on Cys 13; C-terminal amide) [Pegylated Cys-variant CRHR2 peptide agonist (NES linker, PEG about 20 kDa), SEQ ID NO: 67]",> 3 log10 ratio,~6.35 -log M
"TKFTLSLDVPTNICNLLFNIAKAKNLRAQAAANAHLMAQI-NH2 [Cys-variant CRHR2 peptide agonist, SEQ ID NO: 15]",0.9 log10 ratio,8.68 -log M
"TKFTLSLDVPTNICNLLFNIAKAKNLRAQAAANAHLMAQI (NES-PEG (about 20 kDa) on Cys 14; C-terminal amide) [Pegylated Cys-variant CRHR2 peptide agonist (NES linker, PEG about 20 kDa), SEQ ID NO: 68]",~2.61 log10 ratio,~6.96 -log M
"TKFTLSLDVPTNIMCLLFNIAKAKNLRAQAAANAHLMAQI-NH2 [Cys-variant CRHR2 peptide agonist, SEQ ID NO: 16]",0.76 log10 ratio,8.93 -log M
"TKFTLSLDVPTNIMCLLFNIAKAKNLRAQAAANAHLMAQI (NES-PEG (about 20 kDa) on Cys 15; C-terminal amide) [Pegylated Cys-variant CRHR2 peptide agonist (NES linker, PEG about 20 kDa), SEQ ID NO: 69]",2.09 log10 ratio,7.45 -log M
"TKFTLSLDVPTNIMNCLFNIAKAKNLRAQAAANAHLMAQI-NH2 [Cys-variant CRHR2 peptide agonist, SEQ ID NO: 17]",0.02 log10 ratio,9.5 -log M
"TKFTLSLDVPTNIMNCLFNIAKAKNLRAQAAANAHLMAQI (NES-PEG (about 20 kDa) on Cys 16; C-terminal amide) [Pegylated Cys-variant CRHR2 peptide agonist (NES linker, PEG about 20 kDa), SEQ ID NO: 70]",~2.07 log10 ratio,~7.34 -log M
"TKFTLSLDVPTNIMNLCFNIAKAKNLRAQAAANAHLMAQI-NH2 [Cys-variant CRHR2 peptide agonist, SEQ ID NO: 18]",1.11 log10 ratio,8.41 -log M
"TKFTLSLDVPTNIMNLCFNIAKAKNLRAQAAANAHLMAQI (NES-PEG (about 20 kDa) on Cys 17; C-terminal amide) [Pegylated Cys-variant CRHR2 peptide agonist (NES linker, PEG about 20 kDa), SEQ ID NO: 71]",~2.26 log10 ratio,~7.35 -log M
"TKFTLSLDVPTNIMNLLCNIAKAKNLRAQAAANAHLMAQI-NH2 [Cys-variant CRHR2 peptide agonist, SEQ ID NO: 19]",1.67 log10 ratio,8.01 -log M
"TKFTLSLDVPTNIMNLLCNIAKAKNLRAQAAANAHLMAQI (NES-PEG (about 20 kDa) on Cys 18; C-terminal amide) [Pegylated Cys-variant CRHR2 peptide agonist (NES linker, PEG about 20 kDa), SEQ ID NO: 72]",1.5 log10 ratio,8.04 -log M
"TKFTLSLDVPTNIMNLLFCIAKAKNLRAQAAANAHLMAQI-NH2 [Cys-variant CRHR2 peptide agonist, SEQ ID NO: 20]",0.52 log10 ratio,9 -log M
"TKFTLSLDVPTNIMNLLFCIAKAKNLRAQAAANAHLMAQI (NES-PEG (about 20 kDa) on Cys 19; C-terminal amide) [Pegylated Cys-variant CRHR2 peptide agonist (NES linker, PEG about 20 kDa), SEQ ID NO: 73]",1.11 log10 ratio,8.29 -log M
"TKFTLSLDVPTNIMNLLFNCAKAKNLRAQAAANAHLMAQI-NH2 [Cys-variant CRHR2 peptide agonist, SEQ ID NO: 21]",0.77 log10 ratio,8.75 -log M
"TKFTLSLDVPTNIMNLLFNCAKAKNLRAQAAANAHLMAQI (NES-PEG (about 20 kDa) on Cys 20; C-terminal amide) [Pegylated Cys-variant CRHR2 peptide agonist (NES linker, PEG about 20 kDa), SEQ ID NO: 74]",~2.28 log10 ratio,~7.33 -log M
"TKFTLSLDVPTNIMNLLFNICKAKNLRAQAAANAHLMAQI-NH2 [Cys-variant CRHR2 peptide agonist, SEQ ID NO: 22]",0.52 log10 ratio,9.17 -log M
"TKFTLSLDVPTNIMNLLFNICKAKNLRAQAAANAHLMAQI (NES-PEG (about 20 kDa) on Cys 21; C-terminal amide) [Pegylated Cys-variant CRHR2 peptide agonist (NES linker, PEG about 20 kDa), SEQ ID NO: 75]",1.3 log10 ratio,8.24 -log M
"TKFTLSLDVPTNIMNLLFNIACAKNLRAQAAANAHLMAQI-NH2 [Cys-variant CRHR2 peptide agonist, SEQ ID NO: 23]",1.13 log10 ratio,8.55 -log M
"TKFTLSLDVPTNIMNLLFNIACAKNLRAQAAANAHLMAQI (NES-PEG (about 20 kDa) on Cys 22; C-terminal amide) [Pegylated Cys-variant CRHR2 peptide agonist (NES linker, PEG about 20 kDa), SEQ ID NO: 76]",2.7 log10 ratio,6.84 -log M
"TKFTLSLDVPTNIMNLLFNIAKCKNLRAQAAANAHLMAQI-NH2 [Cys-variant CRHR2 peptide agonist, SEQ ID NO: 24]",0.74 log10 ratio,8.94 -log M

Binder,"Log DR against h-SCP, cAMP","pA50, cAMP"
"TKFTLSLDVPTNIMNLLFNIAKCKNLRAQAAANAHLMAQI (NES-PEG (about 20 kDa) on Cys 23; C-terminal amide) [Pegylated Cys-variant CRHR2 peptide agonist (NES linker, PEG about 20 kDa), SEQ ID NO: 77]",1.27 log10 ratio,8.27 -log M
"TKFTLSLDVPTNIMNLLFNIAKACNLRAQAAANAHLMAQI-NH2 [Cys-variant CRHR2 peptide agonist, SEQ ID NO: 25]",0.35 log10 ratio,9.17 -log M
"TKFTLSLDVPTNIMNLLFNIAKACNLRAQAAANAHLMAQI (NES-PEG (about 20 kDa) on Cys 24; C-terminal amide) [Pegylated Cys-variant CRHR2 peptide agonist (NES linker, PEG about 20 kDa), SEQ ID NO: 78]",~1.52 log10 ratio,~7.89 -log M
"TKFTLSLDVPTNIMNLLFNIAKAKCLRAQAAANAHLMAQI-NH2 [Cys-variant CRHR2 peptide agonist, SEQ ID NO: 26]",0.08 log10 ratio,9.44 -log M
"TKFTLSLDVPTNIMNLLFNIAKAKCLRAQAAANAHLMAQI (NES-PEG (about 20 kDa) on Cys 25; C-terminal amide) [Pegylated Cys-variant CRHR2 peptide agonist (NES linker, PEG about 20 kDa), SEQ ID NO: 79]",1.11 log10 ratio,8.5 -log M
"TKFTLSLDVPTNIMNLLFNIAKAKNCRAQAAANAHLMAQI-NH2 [Cys-variant CRHR2 peptide agonist, SEQ ID NO: 27]",0.76 log10 ratio,8.76 -log M
"TKFTLSLDVPTNIMNLLFNIAKAKNCRAQAAANAHLMAQI (NES-PEG (about 20 kDa) on Cys 26; C-terminal amide) [Pegylated Cys-variant CRHR2 peptide agonist (NES linker, PEG about 20 kDa), SEQ ID NO: 80]",1.75 log10 ratio,7.6 -log M
"TKFTLSLDVPTNIMNLLFNIAKAKNLCAQAAANAHLMAQI-NH2 [Cys-variant CRHR2 peptide agonist, SEQ ID NO: 28]",0.16 log10 ratio,9.36 -log M
"TKFTLSLDVPTNIMNLLFNIAKAKNLCAQAAANAHLMAQI (NES-PEG (about 20 kDa) on Cys 27; C-terminal amide) [Pegylated Cys-variant CRHR2 peptide agonist (NES linker, PEG about 20 kDa), SEQ ID NO: 81]",1.82 log10 ratio,7.83 -log M
"TKFTLSLDVPTNIMNLLFNIAKAKNLRCQAAANAHLMAQI-NH2 [Cys-variant CRHR2 peptide agonist, SEQ ID NO: 29]",0 log10 ratio,9.47 -log M
"TKFTLSLDVPTNIMNLLFNIAKAKNLRCQAAANAHLMAQI (NES-PEG (about 20 kDa; MW20000) on Cys 28; C-terminal amide) [Pegylated Cys-variant CRHR2 peptide agonist (NES linker, PEG about 20 kDa), SEQ ID NO: 82]",1.12 log10 ratio,8.4 -log M
"TKFTLSLDVPTNIMNLLFNIAKAKNLRACAAANAHLMAQI-NH2 [Cys-variant CRHR2 peptide agonist, SEQ ID NO: 30]",1.28 log10 ratio,8.4 -log M
"TKFTLSLDVPTNIMNLLFNIAKAKNLRACAAANAHLMAQI (NES-PEG (about 20 kDa) on Cys 29; C-terminal amide) [Pegylated Cys-variant CRHR2 peptide agonist (NES linker, PEG about 20 kDa), SEQ ID NO: 83]",1.63 log10 ratio,7.91 -log M
"TKFTLSLDVPTNIMNLLFNIAKAKNLRAQCAANAHLMAQI-NH2 [Cys-variant CRHR2 peptide agonist, SEQ ID NO: 31]",1.61 log10 ratio,8.02 -log M
"TKFTLSLDVPTNIMNLLFNIAKAKNLRAQCAANAHLMAQI (NES-PEG (about 20 kDa) on Cys 30; C-terminal amide) [Pegylated Cys-variant CRHR2 peptide agonist (NES linker, PEG about 20 kDa), SEQ ID NO: 84]",~2.84 log10 ratio,~6.82 -log M
"TKFTLSLDVPTNIMNLLFNIAKAKNLRAQACANAHLMAQI-NH2 [Cys-variant CRHR2 peptide agonist, SEQ ID NO: 32]",0.11 log10 ratio,9.41 -log M
"TKFTLSLDVPTNIMNLLFNIAKAKNLRAQACANAHLMAQI (NES-PEG (about 20 kDa) on Cys 31; C-terminal amide) [Pegylated Cys-variant CRHR2 peptide agonist (NES linker, PEG about 20 kDa), SEQ ID NO: 85]",0.89 log10 ratio,8.51 -log M
"TKFTLSLDVPTNIMNLLFNIAKAKNLRAQAACNAHLMAQI-NH2 [Cys-variant CRHR2 peptide agonist, SEQ ID NO: 33]",0.45 log10 ratio,9.07 -log M
"TKFTLSLDVPTNIMNLLFNIAKAKNLRAQAACNAHLMAQI (NES-PEG (about 20 kDa) on Cys 32; C-terminal amide) [Pegylated Cys-variant CRHR2 peptide agonist (NES linker, PEG about 20 kDa), SEQ ID NO: 86]",0.82 log10 ratio,8.79 -log M
"TKFTLSLDVPTNIMNLLFNIAKAKNLRAQAAACAHLMAQI-NH2 [Cys-variant CRHR2 peptide agonist, SEQ ID NO: 34]",> 3.19 log10 ratio,~6.32 -log M
"TKFTLSLDVPTNIMNLLFNIAKAKNLRAQAAACAHLMAQI (NES-PEG (about 20 kDa) on Cys 33; C-terminal amide) [Pegylated Cys-variant CRHR2 peptide agonist (NES linker, PEG about 20 kDa), SEQ ID NO: 87]",> 3.68 log10 ratio,~6 -log M
"TKFTLSLDVPTNIMNLLFNIAKAKNLRAQAAANCHLMAQI-NH2 [Cys-variant CRHR2 peptide agonist, SEQ ID NO: 35]",0.7 log10 ratio,8.93 -log M
